The results in this text go back to the nanobody polyreactivity screen of Harvey et al. (2022).

This series in a line: yeast display, Sf9 membrane polyspecificity reagent, FACS + sequencing; frameworks hold sequencing errors. The essentials: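 Nanobodies came from a synthetic yeast display library in Saccharomyces cerevisiae BJ5465, induced with galactose for 36–48 hours and stained for 1 hour at 4 °C with 10% biotinylated, detergent-solubilized Sf9 membrane reagent. Cells were enriched on streptavidin microbeads and then FACS-sorted, with low and high (top ~1%) gates set on anti-HA fluorescence for expression and streptavidin fluorescence for reagent binding. Each polyreactivity label reflects the gate a clone came from. Genes were amplified by colony PCR, sequenced by MiSeq 2 × 250 and filtered by CDR length.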
In the case of “QVQLVESVGGLVQAGGSLRLSCDASGSIFASYAMGGYRQAPGKERELVAAISTSGVSTHYADSVNGRFTISRENAKNTVYLQLNSLKQEDTAVYYCAATPGYKRYYWGQGTQVTVSS”, the “polyreactivity (PSR sort gate)” value is recorded as “high polyreactivity”.

For “QVQLVESGGGLVQAGGSLRLSCAASGITFYQYAMGWYRQAPGKERELVAGINSGGSTNYADSVKGRFTISRDNAKNTVYLQMNSLKPEDTAVYYCAAPWGWARRYRVYGGYYWGQGTQVTVSS”, the “polyreactivity (PSR sort gate)” value is “high polyreactivity”.

Take “QVQLVESGGGLVQAGCSRRLSCSASGSIFRGNSMGWYRPAPGKERELVAAITGSGGNTYYADSVKGRFTISRDNAKNTVYLQMNSLKPEDTAFYYCIADGWNTYIGPRRYRYDYWGQGTQVTVSS”: the “polyreactivity (PSR sort gate)” value is listed as “low polyreactivity”.

Take “QVQLVESGGGLVQAGGSLRLSCAASGSTFPQYTMGWSRQAQGKERELVAAITSGGRTYYADSVKGRFTISRDNAKNTVYLQMNSLKPEDTAVYFCAAGYWYRYFYYTSSPYDYWGQGTQVTVSS”: the “polyreactivity (PSR sort gate)” value is reported as “high polyreactivity”.

With “QVQLVESGGGLVQAGGSLRLSCAASGFTFPWNVMGWYRQAPGKERELVAAITYDGGGTYADSVKGRFTISRDNAKNTVYLQMNSLKPEDTAVYYSNADLIYGEEYDYWGQGTQVTVSS”, the “polyreactivity (PSR sort gate)” value was “low polyreactivity”.

With “QVQLVESGGGLVQAGGSLRLSCAASGRTFDRYAMGWYRQAPGKERELVAAISRGGITYYADSVKERFTISRDNAKNTVYLQMNSLKPEDTAVYYCNAVRWADGDYWGQGTQVTVSS”, the “polyreactivity (PSR sort gate)” value is “high polyreactivity”.

“QVQLVESVGGLVQAGGSLRLSCAASGRTFRKYAMGWYRQAQGKERELVASITYSGGSTYYADSVKGRFTISRDNAKNTVYLQMNSLKPEDTAVYYCAARLHWIRYPQTLYDYWGQGTQVTVSS”: the “polyreactivity (PSR sort gate)” value is listed as “high polyreactivity”.

With “QVQLVESGGGLVQAGGSLRLSCAASGRIFARYTMGWYRQAPGKERELVATITGRGGRTYADSVKGRFTISRDNAKNTVYLQMNSLKPEVTAVYYCNAGGRTASRRYYWGQGSQVTVSS”, the “polyreactivity (PSR sort gate)” value was “low polyreactivity”.

With “QVQLVESGGGLVQAGGSLRLSCAASGSTFAPYAMGWYRQAPGKERELVAVISSAGSTYYADSVKGRFTLSRDNAKNTDYLQRNSLKPEDTAVYYCAARAPSSISQSRGMYYWGQATQVTVSS”, the “polyreactivity (PSR sort gate)” value is recorded as “high polyreactivity”.

For “QVQLVESGGGLVQAGGSLRLSCAASGSTFVRNAMGWYRQAPGKDRELVAAIRWRSGSTYYADSVKGRFTISRDNAKNTVYLQMNSLKPEDTAVYYCAKAFSRTTYRYDYWGQGTQVTVSS”, the “polyreactivity (PSR sort gate)” value is given as “high polyreactivity”.

For “QVQLVESGGGLVQAGGSLRLSCAASGSIFKSYAMGWYRQAPGKERELVAAITRSGGSTYYADSVKGRFTISRDNAKNTVYLQMNSLKPEDTAVYYCAKKAPYWSYYYWGQGTQVTVSS”, the “polyreactivity (PSR sort gate)” value is “high polyreactivity”.

Turning to “QVQLVETGGGLVKAGGSLRLSCAASGRTFGKYAMGWYRQETGKESELVAAITTRVVITYYADSVKGRFTISRDNAKNTVYLQMNSLKPEDTAVYYCAADPEKNYRPFNHYYYWGQGTQVTVSS”, the “polyreactivity (PSR sort gate)” value is on record as “low polyreactivity”.

“QVQLVESAGGLVQAGGSLRLSCAASGSIFAGNVMGWYRQEPGKEWELVAAISRRGGRTYYADSVKGRFTISRDNAKNTVYLQMNSLKPEETAVYYCAARRDPVLCKSDYWGQGTQVTVSS”: the “polyreactivity (PSR sort gate)” value is listed as “high polyreactivity”.

Take “QVQVVESGGGLVQAGGSLRLSCAASGLTFIFNAMGWYRQAPGKERELVADISSGVNTNYADSVKGRFSISRDNEKNTVYLQMNSLKTEDTEVHYCADRLAQTTGYGYWGQGTQVNVSS”: the “polyreactivity (PSR sort gate)” value was “low polyreactivity”.

On to “QVQLVESAGGLVQAGGSLRLSCAPSGSTFYHNVMGWYSPAPGKERELVASIDTGDSTNYADSVKGRFTISRDNAKNTVYLQMNSLKPEDTAVYYCARSQAVYDGWFAKFGYWGQGTQVTVSS”, for which the “polyreactivity (PSR sort gate)” value is listed as “low polyreactivity”.

For the sequence “QVQLVESGGGLVQAGGSLRFSCAASGRTITRYAMGWYRQAPGKERELVAAISKRGTRTYYADSVKGRFTISRDHAKNTVYLQMNSLKPADTAVYYCNGAGRWALYYHLYTGFDYWGQGTQVTVSS”, the “polyreactivity (PSR sort gate)” value is given as “high polyreactivity”.

On to “QLQLVESGGALVQAGGSLRFSCAASARTYGKNAMGWYRQAPGKERELDAAITWSGSSTYYADSVKGRFTISRHNAKNTVYLQMNSLKAEDTAVYYCAKEDWQLDYTVTWRKMDSWGQVTQVTVSS”, for which the “polyreactivity (PSR sort gate)” value is recorded as “low polyreactivity”.

In the case of “QVQLVESGGGVVQAGGRLRLSCAASGFILGYNDMGWYRPAPGKERELVAAISSSGGSTYYADSVKGRFTISRDNAKNTVYLQMNSLKPEDTAVYYCGLPYQTSYGEYDYWGQGTQVTVSS”, the “polyreactivity (PSR sort gate)” value is “low polyreactivity”.

Turning to “QVQLVESGGGLVQAGGSLRLSCADSGSILTRNAMGWYRQAPGKERELVAAISYSGVRTYYADSVKGRFTISRDNAKNNVYLQMNSLKQEDTAVYYCNAVISSRYDYWGQGTQVTVSS”, the “polyreactivity (PSR sort gate)” value is listed as “high polyreactivity”.

Regarding “QVQLQESVGGLVQAGGSLRLSCAASGTIFWGDDMGWYRQAPGKERELVASINDGSITYYADSVKGRFTISRDNAKNTVYLQMNSLKPEDTAVYYCAVRIAVVKSYLIYNYWGQGTQVTVSS”, the “polyreactivity (PSR sort gate)” value is on record as “high polyreactivity”.

As for “QVQLVESGGGIVQAGGSLRLSCAASGRIFRGYGMGWYRQAPGKERELVAAITSRGGSTYYADSVKGRFTISRDNAKNTVYLQMNSLKPEDTAVYYCAAVGVGYPGHKYYYWGQGTQVTVSS”, the “polyreactivity (PSR sort gate)” value is reported as “high polyreactivity”.

Take “QVQLVESGGGLVQAGGSLRLICAASGYTFDYNAMGWYRQAPGKEREFVAAIDWSGGNTYYADSVKGRFTISRDNAKNTVYLQMNSLKPEDTAVYYCNTVTEAVTRRYDYWGQGTQVTVSS”: the “polyreactivity (PSR sort gate)” value is on record as “low polyreactivity”.

For “QVQLVESGGGLVQAGGSLRLSCAASGLTFFPNVMGWYRQAPGKERELVAAISRSGDRTFYADSVKGRFTISRDNAKNTVYLQMNSLKPEDTAVYYCAADSGSSRSRRGYEYWGQGTQVTVSS”, the “polyreactivity (PSR sort gate)” value is recorded as “high polyreactivity”.

As to “QVQLVESGGGLVQAGGSLRLSCAASGSIFFGNAMGWYRQATGKERELVAAITRRGGSTYYADSVKGRFTISRDNAKNTVYLQMNSLKPEDTAVYYCNAVSKRYGYGYWGQGTQVTVSS”, the “polyreactivity (PSR sort gate)” value is “high polyreactivity”.

Take “KVQLVESGGGLVQAGGSLRLSCAASGFIFGAYAMGWYRQAPGKERELVPSITWRGGSTYYADSVKGRFTISRDNAKNTVYLQMNSLKPEDTAVYYCAARVYLYNWQYFAYRAVDYWGQGTQVTVSS”: the “polyreactivity (PSR sort gate)” value is on record as “high polyreactivity”.

Consider “QVQLEESGVGLVQAGGSLRLSSAASGNIFVRYSMGWYRQARGKERELVAAISWSGGRTYYADSVKGRFTISRDKAKNSVYFQMNSLKPEDTAVYYCAAGVPKIGQAGYDYWGQGTQVTVSA”, for which the “polyreactivity (PSR sort gate)” value is listed as “high polyreactivity”.

Consider “QVQLVESGGGLVQAGGSLRLSCAASGSILPVYAMGWYRQAPGKERELVAAISVSGGSTRYADSVKGRFTISRDNAKNTVYLQMNSLKPEDTAVYYCAARYRYSYGYWGQGTQVTVSS”, for which the “polyreactivity (PSR sort gate)” value is listed as “high polyreactivity”.

Take “QVQLVESGGGLVQAGGILRLSCAASGSTFVTYTMGWYRQAPGKERELVATITTSGGSTYYADSVKGRFTISRDNAKNTVYLQMNSLKPEDTAVYYCAADWDPGYYVQYGYDYWGQGTQVTVSS”: the “polyreactivity (PSR sort gate)” value is given as “low polyreactivity”.

“QVQLVESGGGLVQAGGSLRLSCAASGNTFWYYAMGWYRQAPGKEREFVAAISRRGTTTYYADSVKWRFTISRDNAKNTVYLQMNSLKPEDTAVYYCAARRYVSVFRVSATGLDLGYWGQGTQVTVSS”: the “polyreactivity (PSR sort gate)” value is “high polyreactivity”.

Take “QVQLVESGGGLVQAGGSLRLSCAASGHIFFYYTMGWYRQAPGKERELVAGITIGGSTNYADSVKGRFTISRDNAKNTVYLQMNSLKPEDTAVYYCNVVNYVYIYSYWEYYYWGQGTQVTVSS”: the “polyreactivity (PSR sort gate)” value is “low polyreactivity”.

Regarding “QVQLVESGGGLVQAGGSLRLSCAASGRIFFPYAMGWYRQAPGKERELVAAINYSGGSTYYADSVKGRFTISRDNAKNTVYLQMNSLKPEDTAVYYCADGYFWALYVRKYDYWGQGTQVTVSS”, the “polyreactivity (PSR sort gate)” value is “high polyreactivity”.

On to “QVQLVESGGGLVQAGGSLRLRGAASGGIISSYVLGWYRQAPGKERELVAAISRSGGSTYYADSVKGRFTISRDNAKNTVNLQMNSLKPEDTAVYYCAAVLQTRYNYWGQGTQVTVSS”, for which the “polyreactivity (PSR sort gate)” value is given as “high polyreactivity”.

As to “QVQLVESGGGLVQAGGSLRLSCAASGFTFAKYAMGWYRQAPGKERELVAAIRSRGDTTYYADSVKGRFTISRDNAKNTVYFQLNSLKPEDTAVYYCSARSYFLVDGSRYDYCGQGTQVTVSS”, the “polyreactivity (PSR sort gate)” value was “high polyreactivity”.

With “QVQLVESGGGLVQAGGSLRLSCAASGFTFYWYTMAWNRQAPGKERELVAAISRRGGSTSYADSVKGRFTISRDNAKNTVYLQMNSLKPDDTAVYYCAKTPGWTDYDYWGQGTQVTVSS”, the “polyreactivity (PSR sort gate)” value is given as “high polyreactivity”.

Take “QVQLVESGGGLVQAGDSLRLSCAASGSTFTRNAMGWYRQAPGKERDLVASITRGGSTYADSVKGRFTISRDNAKNTVYLQMYSLKPEDTAVYYCAKSVTCWRGLWYTPRNYFWGQGSQVTVSS”: the “polyreactivity (PSR sort gate)” value is recorded as “high polyreactivity”.

Regarding “QVQRVESGGGLVQAGGSLRLSCAASGRIFRGNAMGWYRQAPGKERELVAAITSSGDSTFYADSVKGRFTISRDNANNTVYLQMNSLKPEDTAVYYCNALVQGKEYYWGQGTQVTVSS”, the “polyreactivity (PSR sort gate)” value was “high polyreactivity”.

Consider “QVQLVESGGGLVQAGGSLRLSCAASGSTFDWYAMGWYRQAPGKERELVAAISSDDSTYYADSVKGRFTISRDNAKNTVYLQMNSLKPEDTAVYYCAVDVYSDYGDYGYWGQGTQVTVSS”, for which the “polyreactivity (PSR sort gate)” value was “low polyreactivity”.

As to “QVQLVESGGGLVQAGGSLRLSCAASGRIIPAYDMGWYRQAPGKERELVAAISQGAGGSTYYADSVKGRFTISRDNAKNTVYLQMISLKPEDTAVYSCAREGESGVVDTYGHVYVYEYDYWGQGTQVTVSS”, the “polyreactivity (PSR sort gate)” value is listed as “low polyreactivity”.

For “QVQLVESGGGLVQAGGSLRLSCAASGRIFDTNVRGWSRQAPGKERELVAAISSGGSTYYADSVKGRFTISRDNAKTTVYLQMNSLKPEDTAVYYCAAESRTSRARRYYWGQGTQVTVSS”, the “polyreactivity (PSR sort gate)” value is recorded as “high polyreactivity”.

In the case of “QVQLVESGGGLVQAGGRLRLSCAASGRTLFYYARGWYRQEPGKEREFVPAITWSGVSTSYADSVKGRFTISRDNAKNTVYLQLNSLKPEDTAVYYCAARGYRPRLGKWLDYNYWGQGTQVTVSS”, the “polyreactivity (PSR sort gate)” value is given as “high polyreactivity”.
